Test results reported in patent US20210246218A1 (LYVGEN BIOPHARMA SUZHOU, published 2021).

Key:
Assay in all cases: flow cytometry on CHO cells over-expressing the target
human CD40 on CHO cells = target: T1, human CD40 on CHO cells (human, UniProt P25942 21-277)
T1 construct: whole, on cells
Experimental: (§1) The cells were resuspended in ice cold assay buffer at 2*10\hat{ }6/mL and transferred to 96-well V-bottom plate with 100 μL/well. […] The plate was incubated in the dark for 2 hours at 4° C. The cells were washed 3 times by centrifugation at 1000 g for 3 min and resuspended in 100 μL ice cold assay buffer containing goat F(ab′)₂ anti-human IgG-Fc (PE) or PE goat anti-mouse IgG antibody. The plate was incubated in the dark for another 1 hour at 4° C. The cells were washed 2 times by centrifugation at 1000 g for 3 min and resuspended in ice cold assay buffer containing 2% PFA and analyzed on the flow cytometer immediately.

human GITR on CHO cells = target: T2, human GITR on CHO cells (human, UniProt Q9Y5U5 26-241)
T2 construct: whole, on cells
T2 sequence (looked up): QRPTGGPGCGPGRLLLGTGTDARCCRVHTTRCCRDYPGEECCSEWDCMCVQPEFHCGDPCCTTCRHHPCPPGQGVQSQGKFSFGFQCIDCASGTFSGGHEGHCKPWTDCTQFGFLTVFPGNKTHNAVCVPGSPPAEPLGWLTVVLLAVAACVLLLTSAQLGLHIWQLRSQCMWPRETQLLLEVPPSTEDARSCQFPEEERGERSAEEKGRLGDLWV
Experimental: as §1

mouse CD137 on CHO cells = target: T3, mouse CD137 on CHO cells (mouse, UniProt P20334 24-256)
T3 construct: whole, on cells; also called murine cellular CD137
T3 sequence (P20334 24-256): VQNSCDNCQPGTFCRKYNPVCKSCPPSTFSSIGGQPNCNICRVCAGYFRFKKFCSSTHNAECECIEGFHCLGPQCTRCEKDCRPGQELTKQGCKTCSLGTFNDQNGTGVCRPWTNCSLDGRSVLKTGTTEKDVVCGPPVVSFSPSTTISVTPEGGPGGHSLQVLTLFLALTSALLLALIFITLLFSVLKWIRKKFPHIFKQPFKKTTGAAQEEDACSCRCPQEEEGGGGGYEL
Experimental: as §1

human VISTA on CHO cells = target: T4, human VISTA on CHO cells (human, UniProt Q9H7M9 33-311)
T4 construct: whole, on cells
Experimental: as §1

human B7-H3 on CHO cells = target: T5, human B7-H3 on CHO cells (human, UniProt Q5ZPR3 29-534)
T5 construct: whole, on cells
T5 sequence (looked up): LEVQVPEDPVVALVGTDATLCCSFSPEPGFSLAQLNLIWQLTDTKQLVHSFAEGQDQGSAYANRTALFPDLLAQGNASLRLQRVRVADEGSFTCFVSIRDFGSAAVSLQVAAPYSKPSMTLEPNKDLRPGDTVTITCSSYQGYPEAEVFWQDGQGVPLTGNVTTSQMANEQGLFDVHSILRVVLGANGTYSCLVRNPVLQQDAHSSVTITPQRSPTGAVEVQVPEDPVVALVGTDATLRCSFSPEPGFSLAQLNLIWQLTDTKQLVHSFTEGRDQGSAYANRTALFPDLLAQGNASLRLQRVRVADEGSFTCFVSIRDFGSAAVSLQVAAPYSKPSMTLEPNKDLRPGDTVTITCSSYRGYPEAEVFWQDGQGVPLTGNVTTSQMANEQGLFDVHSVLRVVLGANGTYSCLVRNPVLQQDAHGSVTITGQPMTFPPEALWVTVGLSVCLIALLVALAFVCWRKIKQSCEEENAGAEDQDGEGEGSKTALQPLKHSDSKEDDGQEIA
Experimental: as §1

human TIGIT on CHO cells = target: T6, human TIGIT on CHO cells (human, UniProt Q495A1 22-244)
T6 construct: whole, on cells
T6 sequence (looked up): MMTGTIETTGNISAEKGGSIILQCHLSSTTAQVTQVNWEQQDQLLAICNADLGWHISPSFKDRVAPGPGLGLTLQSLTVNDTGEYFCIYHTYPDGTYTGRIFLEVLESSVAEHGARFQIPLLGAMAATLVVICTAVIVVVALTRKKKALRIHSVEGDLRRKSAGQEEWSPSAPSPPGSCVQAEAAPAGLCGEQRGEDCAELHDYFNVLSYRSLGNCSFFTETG
Experimental: as §1

human BTLA on CHO cells = target: T7, human BTLA on CHO cells (human, UniProt Q7Z6A9 31-289)
T7 construct: whole, on cells
Experimental: as §1

human PD-L1 on CHO cells = target: T8, human PD-L1 on CHO cells (human, UniProt Q9NZQ7 19-290)
T8 construct: whole, on cells
T8 sequence (Q9NZQ7 19-290): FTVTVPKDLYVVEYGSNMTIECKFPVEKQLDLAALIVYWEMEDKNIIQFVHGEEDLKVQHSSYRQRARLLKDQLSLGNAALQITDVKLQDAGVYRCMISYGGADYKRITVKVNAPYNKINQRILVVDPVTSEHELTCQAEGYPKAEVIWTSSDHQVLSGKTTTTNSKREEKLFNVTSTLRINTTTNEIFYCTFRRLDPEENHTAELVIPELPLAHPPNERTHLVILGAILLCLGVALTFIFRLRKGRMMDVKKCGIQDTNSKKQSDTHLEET
Experimental: as §1

human PD-1 on CHO cells = target: T9, human PD-1 on CHO cells (human, UniProt Q15116 25-288)
T9 construct: whole, on cells
T9 sequence (Q15116 25-288): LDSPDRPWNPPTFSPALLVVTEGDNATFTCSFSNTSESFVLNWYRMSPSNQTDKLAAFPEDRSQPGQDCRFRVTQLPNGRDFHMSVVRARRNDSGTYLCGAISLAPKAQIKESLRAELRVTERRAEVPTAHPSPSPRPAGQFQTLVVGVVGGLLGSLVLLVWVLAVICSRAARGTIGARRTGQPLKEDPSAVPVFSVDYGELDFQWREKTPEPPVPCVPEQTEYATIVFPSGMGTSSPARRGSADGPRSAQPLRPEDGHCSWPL
Experimental: as §1

human LAG-3 on CHO cells = target: T10, human LAG-3 on CHO cells (human, UniProt P18627 23-525)
T10 construct: whole, on cells
T10 sequence (looked up): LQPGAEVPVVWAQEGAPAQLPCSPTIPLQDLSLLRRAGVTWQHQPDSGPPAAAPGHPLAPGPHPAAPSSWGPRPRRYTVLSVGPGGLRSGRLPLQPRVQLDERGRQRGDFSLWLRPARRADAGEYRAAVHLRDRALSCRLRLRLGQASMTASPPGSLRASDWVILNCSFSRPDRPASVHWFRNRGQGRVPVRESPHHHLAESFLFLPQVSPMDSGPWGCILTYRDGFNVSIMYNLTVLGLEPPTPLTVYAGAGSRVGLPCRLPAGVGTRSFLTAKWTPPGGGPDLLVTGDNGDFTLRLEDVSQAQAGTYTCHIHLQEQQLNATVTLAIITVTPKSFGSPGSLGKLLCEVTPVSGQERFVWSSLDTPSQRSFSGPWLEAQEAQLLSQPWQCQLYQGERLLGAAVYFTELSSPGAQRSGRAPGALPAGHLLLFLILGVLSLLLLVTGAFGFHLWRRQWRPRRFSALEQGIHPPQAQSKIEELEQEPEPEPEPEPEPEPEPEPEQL
Experimental: as §1

human LTBR on CHO cells = target: T11, human LTBR on CHO cells (human, UniProt P36941 31-435)
T11 construct: whole, on cells
T11 sequence (P36941 31-435): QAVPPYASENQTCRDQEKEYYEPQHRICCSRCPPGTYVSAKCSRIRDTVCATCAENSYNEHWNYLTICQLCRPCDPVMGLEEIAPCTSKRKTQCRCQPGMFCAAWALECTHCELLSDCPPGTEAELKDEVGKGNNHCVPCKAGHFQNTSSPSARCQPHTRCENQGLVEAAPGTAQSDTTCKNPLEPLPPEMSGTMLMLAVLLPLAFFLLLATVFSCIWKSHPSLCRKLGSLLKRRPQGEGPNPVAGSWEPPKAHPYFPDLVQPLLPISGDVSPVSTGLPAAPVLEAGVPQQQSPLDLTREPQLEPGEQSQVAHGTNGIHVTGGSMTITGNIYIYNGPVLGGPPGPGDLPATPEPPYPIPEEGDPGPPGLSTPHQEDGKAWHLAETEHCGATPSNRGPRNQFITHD
Experimental: as §1

Measured: binding result

T1 sequence (P25942 21-277): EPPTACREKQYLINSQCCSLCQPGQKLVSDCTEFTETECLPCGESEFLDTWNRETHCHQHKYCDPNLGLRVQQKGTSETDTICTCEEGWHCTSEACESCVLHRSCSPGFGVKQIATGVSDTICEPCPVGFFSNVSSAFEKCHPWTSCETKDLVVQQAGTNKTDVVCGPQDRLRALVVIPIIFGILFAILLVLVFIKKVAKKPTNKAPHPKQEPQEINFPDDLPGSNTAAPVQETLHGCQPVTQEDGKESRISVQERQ

B1: Clone 3712-IgG1v (IgG1v/kappa) (antibody)
heavy: QVQLVQSGAEVKKPGASVKVSCKASGYTFAGFEMHWVRQAPGQGLEWMGAIDPKTGGTDYNQKFKDRVTMTRDTSISTAYMELSRLRSDDTAVYYCARDLGYFDVWGQGTLVTVSSASTKGPSVFPLAPSSKSTSGGTAALGCLVKDYFPEPVTVSWNSGALTSGVHTFPAVLQSSGLYSLSSVVTVPSSSLGTQTYICNVNHKPSNTKVDKKVEPKSCDKTHTCPPCPAPELLGPSVFLFPPKPKDTLMISRTPEVTCVVVDVEHEDPEVKFNWYVDGVEVHNAKTKPREEQYNSTYRVVSVLTVLHQDWLNGKEYKCKVSNKALPAPIEKTISKAKGQPREPQVYTLPPSREEMTKNQVSLTCLVKGFYPSDIAVEWESNGQPENNYKTTPPVLDSDGSFFLYSKLTVDKSRWQQGNVFSCSVMHEALHNHYTQKSLSLSPGK
light: DIQMTQSPSSLSASVGDRVTITCRASQDIRSNLNWYQQKPGGAVKLLIYYTSRLHSGVPSRFSGSGSGTDYTLTISSLQPEDFATYFCQQSEKLPRTFGGGTKVEIRRTVAAPSVFIFPPSDEQLKSGTASVVCLLNNFYPREAKVQWKVDNALQSGNSQESVTEQDSKDSTYSLSSTLTLSKADYEKHKVYACEVTHQGLSSPVTKSFNRGEC
notes: copies: 2 + 2
no binding: human CD40 on CHO cells | human GITR on CHO cells | mouse CD137 on CHO cells | human VISTA on CHO cells | human B7-H3 on CHO cells | human TIGIT on CHO cells | human BTLA on CHO cells | human PD-L1 on CHO cells | human PD-1 on CHO cells | human LAG-3 on CHO cells | human LTBR on CHO cells
